The values below come from patent publication US20170035898A1, “CONJUGATES OF AN IL-15 MOIETY AND A POLYMER” (Nektar Therapeutics, priority 2014, published 2017).

Experiment [1] concerns the target IL-15-Rα-Fc. Briefly: SPR (Biacore), IL-15Rα-Fc captured by anti-human Fc antibody, Kd from kd/ka. On the technique in general: Surface plasmon resonance follows binding to a sensor surface in real time, without labels.
Experiment [2] addresses IL-15-Rα-Fc. Briefly: SPR (Biacore), IL-15Rα-Fc captured by anti-human Fc antibody, test article injected.
Experiment [3] deals with STAT5 phosphorylation in CTLL-2 cells. Briefly: Measurement of IL-15 activity of rIL-15 conjugates based on STAT5 phosphorylation in CTLL-2 cells (Example 8). In kind it is cell-based. As to conditions: 10 minute treatment. As to the method:
One day prior to the assay, CTLL-2 cells were split into fresh growth medium [RPMI 1640 supplemented with 10% FBS, 10% T-cell culture supplement (catalog #354115, Corning, Inc., Tewksbury, Mass.), 2 mM L-glutamate, and 1 mM sodium pyruvate]. On the day of assay, cells were pre-incubated in assay medium (RPMI 1640 supplemented with 1% FBS, 2 mM L-glutamate, and 1 mM sodium pyruvate) for at least four hours, and then plated in assay medium in a 96-well plate at 50,000 cells/well. Dilutions of the test article were prepared in an appropriate buffer immediately prior to assay. Stimulation of CTLL-2 cells was initiated by the transfer of 25× test article solutions to triplicate wells containing CTLL-2 cells. Plates were incubated at 37° C., 5% CO2 for 10 minutes, and the reaction was stopped by cell lysis. Detection of phospho-STAT5 and total STAT5 protein levels in cell lysates was performed using the MSD Phospho (Tyr694)/Total STATa,b Whole Cell Lysate Kit (catalog #K15163D, Meso Scale Diagnostics, LLC, Gaithersburg, Md.). […] Conjugates prepared in accordance with Examples 2, 3 and 5 were tested, with the results following a 10 minute treatment provided in Table 4.

The subject of another experiment is IL-15Rα. Briefly: Receptor affinities for IL-15Rα by Surface Plasmon Resonance (Example 10). The experiment is classed as binding. As to conditions: SPR. As to the method:
The affinities of IL-15 and rIL-15 conjugates were measured using Surface Plasmon Resonance (“SPR”). Briefly, the surface of a Biacore CMS sensor chip was activated using a 1:1 mixture of NHS:EDC to generate active NHS esters. Goat anti-human Fc antibody was covalently attached to the surface by injecting it for five minutes in 10 mM sodium acetate (pH 4). There were approximately 8000 RU of antibodies bound to the surface. Any remaining NHS ester was then quenched with ethanolamine
At the initiation of each injection cycle, IL-15-Rα-Fc was captured on a sensor chip channel by a five minute injection step in PBSP. Typically, 150-200 RU of receptors were bound on the surface.
rIL-15 conjugates were diluted to 10 μM in PBS (containing 0.05% Tween 20 and 0.1 mg/ml BSA). A series of 3-fold dilutions were made and injected onto a sensor chip which was coated with IL-15Rα. The affinities were measured by determining the ka and kd rates separately, and the ratio between kd and ka was used to calculate the Kd values.

Experiment [4] concerns STAT5 phosphorylation in CTLL-2 cells. Briefly: Measurement of IL-15 activity of rIL-15 based on STAT5 phosphorylation in CTLL-2 cells (Example 1). The experiment is classed as cell-based. An excerpt: For any given peptide, protein moiety or conjugate, it is possible to determine whether that peptide, protein moiety or conjugate has IL-15 activity. Various methods for determining in vitro IL-15 activity are described in the art. An exemplary approach is based on a pSTAT assay. Briefly, if an IL-15-dependent CTLL-2 cell is exposed to a test article having IL-15 activity, initiation of a signaling cascade results that includes the phosphorylation of STAT5 at tyrosine residue 694 (Tyr694) that can be quantitatively measured.
One day prior to assay, CTLL-2 cells were split into fresh growth medium (RPMI 1640+10% FBS+10% T-STIM+2 mM L-glut+1 mM Na-pyruvate). On the day of assay, cells were pre-incubated in assay medium (RPMI 1640+1% FBS+2 mM L-glut+1 mM Na-pyruvate) for at least 4 hours and then placed in a 96-well plate at 50,000 cells/well in the assay medium.
Dilutions of the test article were prepared in an appropriate buffer immediately prior to assay and each dilution of test article was incubated in a separate well of the CTLL-2 cells. The phosphorylation of STAT5 was then determined using the MSD Phospho (Tyr694)/Total STATa,b Whole Cell Lysate Kit (catalog #K15163D, […], LLC, Gaithersburg, Md.).

In another experiment the test system is B16F10 melanoma tumor. Briefly: Antitumor activity of rIL-15 conjugates in B16F10 melanoma tumor (Example 9). The experiment is classed as in vivo, C57BL/6 mice. The settings on record: conjugates 0.6 mg/kg i.v. once, IL-15 0.3 mg/kg i.p. every other day x6. As to the method:
To test and compare the efficacy of rIL-15 conjugates in an in vivo model, syngenic tumors were induced in 6-8 week old female C57BL/6 mice by subcutaneously injecting, into post ventral abdominal region, mouse metastatic B16F10 melanoma cells at a density of 1×10^6 cells mL-1 in 100 μL volume of non-serum containing cell culture medium. The mice developed tumors of approximately 100 mm^3 by the end of 6-8 days. The mice were divided into six groups, each group consisting of 10 animals.
Groups A through D correspond to rIL-15 conjugates that were administered at 0.6 mg/kg body weight by intravenous injection to the mice only once while Group E represents unconjugated IL-15 administered every other day via intraperitoneal injection. Group F represents a vehicle control, wherein phosphate buffered saline was administered by intravenous injection.
Following dose administration, the mice were measured for changes in body weight and for the growth of subcutaneous metastatic melanoma tumors by digital calipers three times a week. Daily clinical signs were also monitored. The study end point was reached when the mean volume of the tumors reach 1500 mm^3 (i.e., a mean tumor volume of 1500 mm^3).

The mark [5] stands for this setting: IL-15-Rα-Fc captured on sensor chip.
The mark [6] stands for this setting: days from the day of implantation.

The Kd is the constant that tells how readily two partners part at equilibrium. For the substance “Fraction containing mono-PEG-rIL-15 from Example 2 ([mPEG2-ru-20K]-[rIL-15] conjugates) (from UniProt P40933 49-162) (ligand)”, the equilibrium dissociation constant (Kd) in the experiment with IL-15-Rα-Fc [1] is 0.043 nM.
As a reminder, the koff is the first-order rate constant of dissociation. A higher koff goes with fast dissociation. As usually defined, the kon is a measure of how fast the partners come together. The low end stands for slow association, the high end for fast association. For the substance “Fraction containing di- and tri-PEG-rIL-15 from Example 2 ([mPEG2-ru-20K]-[rIL-15] conjugates) (from UniProt P40933 49-162) (ligand)”, in the experiment with IL-15-Rα-Fc [2], the koff is 0.00049 s⁻¹ and the kon was found to be 2.6e+06 M⁻¹ s⁻¹. Moreover, in the experiment with IL-15-Rα-Fc [1], the Kd is 0.183 nM.
In turn, “recombinant IL-15 (unconjugated) (from UniProt P40933 49-162) (ligand)” came in with a Kd in the experiment with IL-15-Rα-Fc [1] of 0.0038 nM.
As to “IL-15: recombinant human IL-15 obtained from PeproTech (catalog #200-15); unconjugated control”, in experiment [3], the “EC50 (ng/mL) Ave ± SD” value stood at 0.063 ± 0.028 ng/mL. In the experiment with IL-15Rα (setting [5]), the ka was 7.5e+06 M⁻¹ s⁻¹ and the kd amounted to 0.00028 s⁻¹. Also, the dissociation constant Kd at IL-15Rα (read-out: affinity (Kd)) is 0.0038 nM. Besides, the “average pSTAT5 EC50” value in experiment [4] (at 5 minutes, average over two runs) is given as 0.2071 ng/mL. In addition, the “pSTAT5 EC50” value in experiment [4] (at 10 minutes) came to 0.08187 ng/mL. Further, in the experiment on B16F10 melanoma tumor, the “Tumor Volume Doubling Time (500 mm^3)” value amounted to 2.9 days and the “Tumor Volume Doubling Time (1000 mm^3)” value came out at 5.6 days. In the experiment on B16F10 melanoma tumor (setting [6]), the “Time to reach 250 mm^3” value is 10.6 days, the “Time to reach 500 mm^3” value was 13.5 days and the “Time to reach 1000 mm^3” value is 19.1 days. For the same substance, in the experiment on B16F10 melanoma tumor (versus vehicle control Group F), the “Tumor growth delay for 250 mm^3” value is 0.6 days, the “Tumor growth delay for 500 mm^3” value was 0.9 days and the “Tumor growth delay for 1000 mm^3” value came out at 4 days.
For “Fraction containing tri-PEG-rIL-15 from Example 5 ([mPEG2-ru-40K]-[rIL-15] conjugates) (from UniProt P40933 49-162) (ligand)”, in the experiment with IL-15-Rα-Fc [2], the koff turned out to be 0.0039 s⁻¹ and the kon came out at 420000 M⁻¹ s⁻¹. For the same substance, the dissociation constant Kd with IL-15-Rα-Fc [1] stood at 9.4 nM.
In the same order, the values of “Fraction containing mono-PEG-rIL-15 from Example 5 ([mPEG2-ru-40K]-[rIL-15] conjugates) (from UniProt P40933 49-162) (ligand)” are 0.00047 s⁻¹, 130000 M⁻¹ s⁻¹ and 3.56 nM.
Taken in the same sequence, the figures for “Fraction containing di- and tri-PEG-rIL-15 from Example 5 ([mPEG2-ru-40K]-[rIL-15] conjugates) (from UniProt P40933 49-162) (ligand)” were 0.00088 s⁻¹, 460000 M⁻¹ s⁻¹ and 1.9 nM.
